Results on 26 molecules are retold here after patent publication US20050272659A1 (BRIGHAM AND WOMEN S HOSPITAL, published 2005).

Starred links: 1 amine or outer side, 2 acyl side, 3 side chain; linkers in the order of their positions; H or OH if unused. Non-standard residues stand in square brackets, D forms with d. *: point of attachment. dThr(OBz) = D-threonine with an O-benzyl (OBz) group, C[C@H](OCc1ccccc1)[C@@H](N[*:1])C(=O)[*:2]; Thr(OBz) = threonine with O-benzyl ester (OBz); dBpa = N[C@H](Cc1ccc(C(=O)c2ccccc2)cc1)C(=O)O; Boc = CC(C)(C)OC(=O)*; Aib = CC(C)(N)C(=O)O

B1: D-peptide Boc-Gly-Leu-Aib-Val-Gly-Aib-Val-Val-Ile-Aib-Thr(OBz)-Val-Aib-Val-Ile-Aib-OMe (SEQ ID NO:21) (peptide)
peptide: Boc-G[dL][Aib][dV]G[Aib][dV][dV][dI][Aib][dThr(OBz)][dV][Aib][dV][dI][Aib]-OMe
SMILES: CC[C@@H](C)[C@@H](NC(=O)[C@H](NC(=O)[C@H](NC(=O)C(C)(C)NC(=O)CNC(=O)[C@H](NC(=O)C(C)(C)NC(=O)[C@@H](CC(C)C)NC(=O)CNC(=O)OC(C)(C)C)C(C)C)C(C)C)C(C)C)C(=O)NC(C)(C)C(=O)N[C@@H](C(=O)N[C@@H](C(=O)NC(C)(C)C(=O)N[C@@H](C(=O)N[C@@H](C(=O)NC(C)(C)C(=O)OC)[C@H](C)CC)C(C)C)C(C)C)[C@H](C)OCc1ccccc1
B2: D-peptide Boc-Gly-Aib-Val-Val-Ile-Aib-Thr(OBz)-Val-Aib-Val-Ile-Aib-OMe (SEQ ID NO:17) (peptide)
peptide: Boc-G[Aib][dV][dV][dI][Aib][dThr(OBz)][dV][Aib][dV][dI][Aib]-OMe
SMILES: CC[C@@H](C)[C@@H](NC(=O)[C@H](NC(=O)[C@H](NC(=O)C(C)(C)NC(=O)CNC(=O)OC(C)(C)C)C(C)C)C(C)C)C(=O)NC(C)(C)C(=O)N[C@@H](C(=O)N[C@@H](C(=O)NC(C)(C)C(=O)N[C@@H](C(=O)N[C@@H](C(=O)NC(C)(C)C(=O)OC)[C@H](C)CC)C(C)C)C(C)C)[C@H](C)OCc1ccccc1
B3: D-peptide Boc-Val-Val-Ile-Aib-Thr(OBz)-Val-Aib-Val-Ile-Aib-OMe (SEQ ID NO:15) (peptide)
peptide: Boc-[dV][dV][dI][Aib][dThr(OBz)][dV][Aib][dV][dI][Aib]-OMe
SMILES: CC[C@@H](C)[C@@H](NC(=O)[C@H](NC(=O)[C@H](NC(=O)OC(C)(C)C)C(C)C)C(C)C)C(=O)NC(C)(C)C(=O)N[C@@H](C(=O)N[C@@H](C(=O)NC(C)(C)C(=O)N[C@@H](C(=O)N[C@@H](C(=O)NC(C)(C)C(=O)OC)[C@H](C)CC)C(C)C)C(C)C)[C@H](C)OCc1ccccc1
B4: D-peptide Boc-Leu-Aib-Val-Gly-Aib-Val-Val-Ile-Aib-Thr(OBz)-Val-Aib-Val-Ile-Aib-OMe (SEQ ID NO:20) (peptide)
peptide: Boc-[dL][Aib][dV]G[Aib][dV][dV][dI][Aib][dThr(OBz)][dV][Aib][dV][dI][Aib]-OMe
SMILES: CC[C@@H](C)[C@@H](NC(=O)[C@H](NC(=O)[C@H](NC(=O)C(C)(C)NC(=O)CNC(=O)[C@H](NC(=O)C(C)(C)NC(=O)[C@@H](CC(C)C)NC(=O)OC(C)(C)C)C(C)C)C(C)C)C(C)C)C(=O)NC(C)(C)C(=O)N[C@@H](C(=O)N[C@@H](C(=O)NC(C)(C)C(=O)N[C@@H](C(=O)N[C@@H](C(=O)NC(C)(C)C(=O)OC)[C@H](C)CC)C(C)C)C(C)C)[C@H](C)OCc1ccccc1
B5: D-peptide Boc-Val-Gly-Aib-Val-Val-Ile-Aib-Thr(OBz)-Val-Aib-Val-Ile-Aib-OMe (SEQ ID NO:18) (peptide)
peptide: Boc-[dV]G[Aib][dV][dV][dI][Aib][dThr(OBz)][dV][Aib][dV][dI][Aib]-OMe
SMILES: CC[C@@H](C)[C@@H](NC(=O)[C@H](NC(=O)[C@H](NC(=O)C(C)(C)NC(=O)CNC(=O)[C@H](NC(=O)OC(C)(C)C)C(C)C)C(C)C)C(C)C)C(=O)NC(C)(C)C(=O)N[C@@H](C(=O)N[C@@H](C(=O)NC(C)(C)C(=O)N[C@@H](C(=O)N[C@@H](C(=O)NC(C)(C)C(=O)OC)[C@H](C)CC)C(C)C)C(C)C)[C@H](C)OCc1ccccc1
B6: D-peptide Boc-Aib-Val-Val-Ile-Aib-Thr(OBz)-Val-Aib-Val-Ile-Aib-OMe (SEQ ID NO:16) (peptide)
peptide: Boc-[Aib][dV][dV][dI][Aib][dThr(OBz)][dV][Aib][dV][dI][Aib]-OMe
SMILES: CC[C@@H](C)[C@@H](NC(=O)[C@H](NC(=O)[C@H](NC(=O)C(C)(C)NC(=O)OC(C)(C)C)C(C)C)C(C)C)C(=O)NC(C)(C)C(=O)N[C@@H](C(=O)N[C@@H](C(=O)NC(C)(C)C(=O)N[C@@H](C(=O)N[C@@H](C(=O)NC(C)(C)C(=O)OC)[C@H](C)CC)C(C)C)C(C)C)[C@H](C)OCc1ccccc1
B7: D-peptide Boc-Aib-Val-Gly-Aib-Val-Val-Ile-Aib-Thr(OBz)-Val-Aib-Val-Ile-Aib-OMe (SEQ ID NO:19) (peptide)
peptide: Boc-[Aib][dV]G[Aib][dV][dV][dI][Aib][dThr(OBz)][dV][Aib][dV][dI][Aib]-OMe
SMILES: CC[C@@H](C)[C@@H](NC(=O)[C@H](NC(=O)[C@H](NC(=O)C(C)(C)NC(=O)CNC(=O)[C@H](NC(=O)C(C)(C)NC(=O)OC(C)(C)C)C(C)C)C(C)C)C(C)C)C(=O)NC(C)(C)C(=O)N[C@@H](C(=O)N[C@@H](C(=O)NC(C)(C)C(=O)N[C@@H](C(=O)N[C@@H](C(=O)NC(C)(C)C(=O)OC)[C@H](C)CC)C(C)C)C(C)C)[C@H](C)OCc1ccccc1
B8: Boc-Aib-Ala-Leu-Aib-Ala-Leu-Aib-Ala-Leu-Aib-OMe (SEQ ID NO:13) (peptide)
peptide: Boc-[Aib]AL[Aib]AL[Aib]AL[Aib]-OMe
SMILES: COC(=O)C(C)(C)NC(=O)[C@H](CC(C)C)NC(=O)[C@H](C)NC(=O)C(C)(C)NC(=O)[C@H](CC(C)C)NC(=O)[C@H](C)NC(=O)C(C)(C)NC(=O)[C@H](CC(C)C)NC(=O)[C@H](C)NC(=O)C(C)(C)NC(=O)OC(C)(C)C
B9: Boc-D-Val-Gly-Aib-D-Val-D-Val-D-BPA-Aib-D-Thr(OBz)-D-Val-Aib-OMe (SEQ ID NO:11) (peptide)
peptide: Boc-[dV]G[Aib][dV][dV][dBpa][Aib][dThr(OBz)][dV][Aib]-OMe
SMILES: COC(=O)C(C)(C)NC(=O)[C@H](NC(=O)[C@H](NC(=O)C(C)(C)NC(=O)[C@@H](Cc1ccc(C(=O)c2ccccc2)cc1)NC(=O)[C@H](NC(=O)[C@H](NC(=O)C(C)(C)NC(=O)CNC(=O)[C@H](NC(=O)OC(C)(C)C)C(C)C)C(C)C)C(C)C)[C@H](C)OCc1ccccc1)C(C)C

In one experiment the target is T1, γ-secretase in Chinese hamster ovary (CHO) cells stably transfected with human APP. As to the kind of experiment: cell-based or functional assay.
For Boc-V[Aib]IA[Thr(OBz)][Aib]IV[Aib]-OMe [Boc-Val-Aib-Ile-Ala-Thr(OBz)-Aib-Ile-Val-Aib-OMe (SEQ ID NO:4), all-L], the “IC50 (concentration that reduced production of total Aβ by 50% in CHO cells stably transfected with human APP)” value is 2000 nM.
Regarding Boc-A[Thr(OBz)][Aib]IV[Aib]-OMe [Boc-Ala-Thr(OBz)-Aib-Ile-Val-Aib-OMe (SEQ ID NO:1), all-L], the “IC50 (concentration that reduced production of total Aβ by 50% in CHO cells stably transfected with human APP)” value is 25000 nM.
Same read-out and setting: the same measure for Boc-IA[Thr(OBz)][Aib]IV[Aib]-OMe [Boc-Ile-Ala-Thr(OBz)-Aib-Ile-Val-Aib-OMe (SEQ ID NO:2), all-L]: 15000 nM; for Boc-VG[Aib]VVI[Aib][Thr(OBz)]V[Aib]-OMe [Boc-Val-Gly-Aib-Val-Val-Ile-Aib-Thr(OBz)-Val-Aib-OMe (SEQ ID NO:10), all-L]: 3000 nM; for Boc-GV[Aib]IA[Thr(OBz)][Aib]IV[Aib]-OMe [Boc-Gly-Val-Aib-Ile-Ala-Thr(OBz)-Aib-Ile-Val-Aib-OMe (SEQ ID NO:5), all-L]: 5000 nM.
Take Boc-[Aib]VVI[Aib][Thr(OBz)]V[Aib]-OMe [Boc-Aib-Val-Val-Ile-Aib-Thr(OBz)-Val-Aib-OMe (SEQ ID NO:8), all-L]: the “IC50 (concentration that reduced production of total Aβ by 50% in CHO cells stably transfected with human APP)” value turned out to be 6000 nM.
For the molecule Boc-G[Aib]VVI[Aib][Thr(OBz)]V[Aib]-OMe [Boc-Gly-Aib-Val-Val-Ile-Aib-Thr(OBz)-Val-Aib-OMe (SEQ ID NO:9), all-L], the “IC50 (concentration that reduced production of total Aβ by 50% in CHO cells stably transfected with human APP)” value is 3000 nM.
For the molecule Boc-VI[Aib][Thr(OBz)]V[Aib]-OMe [Boc-Val-Ile-Aib-Thr(OBz)-Val-Aib-OMe (SEQ ID NO:6), all-L], the “IC50 (concentration that reduced production of total Aβ by 50% in CHO cells stably transfected with human APP)” value was 12000 nM.
For the molecule Boc-VVI[Aib][Thr(OBz)]V[Aib]-OMe [Boc-Val-Val-Ile-Aib-Thr(OBz)-Val-Aib-OMe (SEQ ID NO:7), all-L], the “IC50 (concentration that reduced production of total Aβ by 50% in CHO cells stably transfected with human APP)” value turned out to be 6000 nM.
In the case of Boc-[Aib]IA[Thr(OBz)][Aib]IV[Aib]-OMe [Boc-Aib-Ile-Ala-Thr(OBz)-Aib-Ile-Val-Aib-OMe (SEQ ID NO:3), all-L], the “IC50 (concentration that reduced production of total Aβ by 50% in CHO cells stably transfected with human APP)” value was determined as 10000 nM.

For the next experiment, the target named is γ-secretase (detergent-solubilized membranes from HeLa cells). As to the kind of experiment: cell-based or functional assay.
Consider B1, for which the “Cell-free Assay IC50 (concentration required for 50% inhibition of Aβ40 production)” value amounted to 26 nM.
In the case of B2, the “Cell-free Assay IC50 (concentration required for 50% inhibition of Aβ40 production)” value turned out to be 12 nM.
For the molecule Boc-VVI[Aib][Thr(OBz)]V[Aib]VI[Aib]-OMe [L-peptide Boc-Val-Val-Ile-Aib-Thr(OBz)-Val-Aib-Val-Ile-Aib-OMe (SEQ ID NO:15)], the “Cell-free Assay IC50 (concentration required for 50% inhibition of Aβ40 production)” value is 10000 nM.
The same measure, in the same setting: next, Boc-[Aib]VG[Aib]VVI[Aib][Thr(OBz)]V[Aib]VI[Aib]-OMe [L-peptide Boc-Aib-Val-Gly-Aib-Val-Val-Ile-Aib-Thr(OBz)-Val-Aib-Val-Ile-Aib-OMe (SEQ ID NO:19)]: 910 nM; B3: 25 nM.
On to Boc-GL[Aib]VG[Aib]VVI[Aib][Thr(OBz)]V[Aib]VI[Aib]-OMe, for which the “Cell-free Assay IC50 (concentration required for 50% inhibition of Aβ40 production)” value turned out to be 11000 nM.
Same read-out and setting: next, Boc-G[Aib]VVI[Aib][Thr(OBz)]V[Aib]VI[Aib]-OMe [L-peptide Boc-Gly-Aib-Val-Val-Ile-Aib-Thr(OBz)-Val-Aib-Val-Ile-Aib-OMe (SEQ ID NO:17)]: 360 nM; B4: 16 nM; B5: 0.14 nM.
Take Boc-L[Aib]VG[Aib]VVI[Aib][Thr(OBz)]V[Aib]VI[Aib]-OMe [L-peptide Boc-Leu-Aib-Val-Gly-Aib-Val-Val-Ile-Aib-Thr(OBz)-Val-Aib-Val-Ile-Aib-OMe (SEQ ID NO:20)]: the “Cell-free Assay IC50 (concentration required for 50% inhibition of Aβ40 production)” value amounted to 4700 nM.
In the case of B6, the “Cell-free Assay IC50 (concentration required for 50% inhibition of Aβ40 production)” value came out at 28 nM.
Take Boc-[Aib]VVI[Aib][Thr(OBz)]V[Aib]VI[Aib]-OMe [L-peptide Boc-Aib-Val-Val-Ile-Aib-Thr(OBz)-Val-Aib-Val-Ile-Aib-OMe (SEQ ID NO:16)]: the “Cell-free Assay IC50 (concentration required for 50% inhibition of Aβ40 production)” value was found to be 3100 nM.
Same read-out and setting: the same measure for B7: 14 nM.
Turning to Boc-VG[Aib]VVI[Aib][Thr(OBz)]V[Aib]VI[Aib]-OMe [L-peptide Boc-Val-Gly-Aib-Val-Val-Ile-Aib-Thr(OBz)-Val-Aib-Val-Ile-Aib-OMe (SEQ ID NO:18)], the “Cell-free Assay IC50 (concentration required for 50% inhibition of Aβ40 production)” value was found to be 780 nM.

A further experiment has as its target T1, γ-secretase in Chinese hamster ovary …. As to the kind of experiment: cell-based or functional assay. This is another data set of the same source.
In the case of B5, the “IC50 in a cell-based assay from APP-transfected CHO cells” value was found to be 9 nM.
With B8, the “IC50 of Aβ production in APP-transfected cells” value is 2000 nM.
B9: the “IC50 in the same cell-based assay using CHO cells stably transfected with human APP (total Aβ production)” value was 100 nM.
